From paper PMC9765176, “Infant Antibody Repertoires during the First Two Years of Influenza Vaccination” (mBio, 2022)

Assays:
[1] = molecular target: T1, recombinant hemagglutinin B/Brisbane/2008, full-length construct (full-length soluble ectodomain, FLsE) (influenza B virus B/Brisbane/60/2008, UniProt C0LT35, strain); assay: multiplex bead assay (Luminex); conditions: one partner purified
T1 construct: also called B/Brisbane/60/2008; B/Vic

[2] = molecular target: T2, recombinant hemagglutinin B/Brisbane/2008, head construct (trimeric, head-only) (influenza B virus B/Brisbane/60/2008, UniProt C0LT35, strain); assay: multiplex bead assay (Luminex); conditions: one partner purified
T2 construct: also called rHA head

B1: year 2 postvaccination Bmem BCR of infant 1, clonally related to the most abundant IBV HA-specific plasma IgG clonotype (antibody, V domains shown)
VH: EVQLVESGGGLVQPGGSLRLSCAASGFTFRSYEMNWVRQAPGKGLEWISYISGSGGTIYYADSVKGRFTISRDNARNSLYLQMNSLRAEDTAVYYCARDLRGIGDYWGQGTLVTVSS
VL: SSELTQDPAVSVALGQTVRITCQGDSLRSYYASWYQQKPGQAPVLVIYGESNRPSGIPDRFSGSSSGNTASLTITGAQAEDEADYYCNSRDNSGNLYVFGSGTKVTVL
[1]
  binding result: binds
[2]
  binding result: no binding
